{"source": "paper PMC7269643", "about": "(Science Advances, 2020)", "biological_target": "the molecule itself", "assay": "AUC", "data": [{"protein": "VapC22 toxin from Mycobacterium tuberculosis, expressed alone from a modified pBAD/Myc-His vector (enzyme) MTTVLLDSHVAYWWSAEPQRLSMAASQAIEHADELAVAAISWFELAWLAEQERIQLAIPVLSWLQQLAEHVRTVGITPSVAATAVALPSSFPGDPADRLIYATAIEHGWRLVTKDRRLRSHRHPRPVTVW", "values": [{"measurement": "stoichiometry N", "result": 2}]}]}
